What was measured:
[1] = tested on: eosinophils in healthy donor PMNL samples; assay: Shape change assay: CCL11-stimulated eosinophil shape change in PMNL, flow cytometry (FSC); assay type: cell-based, human; details: Example 1, 3 μg/mL ApoA-IV pretreatment 30 min
Experimental: (§1) PMNL samples were pretreated with 3 μg/mL ApoA-IV (positive control), 100 μg/mL SO, and formulation vehicle (negative control) for 30 minutes and stimulated with serial dilutions of CCL11 for 20 minutes at 37° C. Shape change was monitored by flow cytometry as the increase of forward scatter (FSC) and was expressed as percent of the vehicle response. Note, eosinophils are distinguishable from neutrophils by their SSC properties and autofluorescence.
(§2) The chemotactic factor, CCL11, was used to prime eosinophils to immediately prepare for diapedesis through the endothelium by rearranging their cytoskeleton. This morphological change was detected by flow cytometry as an increase in the forward scatter properties of these cells. The effects of SO at 100 μg/mL was studied and compared to the known effect of 3 μg/mL ApoA-IV on eosinophil shape change in healthy donor PMNL samples. The pretreated samples were stimulated with serial dilutions of CCL11, and shape change was monitored by flow cytometry.
as §1, with “with” for “with 3 μg/mL ApoA-IV (positive control),”, “SO, heat, acid and base treated SO, krill oil, standard 18/12 fish oil,” for “SO,”, “Eosinophils were” for “Note, eosinophils are”, “auto-fluorescence.” for “autofluorescence.”
as §2, with “various processing treatments on SO, krill oil and standard 18/12 fish oil” for “known effect of 3 μg/mL ApoA-IV”

[2] = tested on: allergic human eosinophils; assay: Apoptosis assay (Annexin V-FITC, flow cytometry); assay type: cell-based; details: Example 1; 3 μg/mL ApoA-IV; 18 hr incubation; IL-5 50 pM
Experimental: (§3) The allergic human eosinophils were placed in RPMI 1640 medium supplemented with IL-5 (50 pM), 1% FBS and PenStrep in the presence of 3 μg/mL ApoA-IV (positive control), 100 μg/mL SO, and formulation vehicle (negative control). Aliquots were removed after 18 hr incubation, washed twice in PBS, and resuspended in binding buffer. The eosinophil cells were stained using the Annexin V-FITC Apoptosis Detection Kit I, (Sigma Aldrich) and immediately analyzed by flow cytometry. Each sample was acquired for 1 min, and the total number of eosinophils gated on a forward scatter/side scatter plot and the percentage of live cells (annexin Vneg) and apoptotic cells (annexin Vpos) was recorded.
as §3, with “of” for “of 3 μg/mL ApoA-IV (positive control),”, “SO, heat, acid and base treated SO, krill oil, standard 18/12 fish oil,” for “SO,”, “Aliquots were removed after 18 hr incubation, washed twice in PBS, and resuspended in binding buffer.” left out, “recorded. […]” for “recorded.”

[3] = tested on: CD11b on eosinophils (PMNL surface); assay: CD11b (integrin) upregulation assay, CCL11-stimulated PMNL, flow cytometry; assay type: cell-based, human; details: Example 1, 3 μg/mL ApoA-IV pretreatment 30 min
Experimental: (§4) PMNL samples were pretreated with 3 μg/mL ApoA-IV (positive control), 100 μg/mL SO, and formulation vehicle (negative control) for 30 minutes and incubated with serial dilutions of CCL11 for 30 minutes at 37° C. Samples were stained with anti-CD16-PE-Cy5 and anti-CD11b-PE (ICRF44) antibodies. Eosinophils were identified as CD16 negative cells. CD11b upregulation was analyzed by flow cytometry.
A precondition for eosinophil migration is upregulation of adhesion molecules such as the αmβ2 integrins (CD11b/CD18).
as §4, with “with” for “with 3 μg/mL ApoA-IV (positive control),”, “SO, heat, acid and base treated SO, krill oil, standard 18/12 fish oil,” for “SO,”

[4] = tested on: House Dust Mite (HDM) extract-induced murine asthma model; assay: House Dust Mite (HDM) extract-induced murine asthma model: BAL fluid and spleen cellularity; assay type: in vivo, mice; details: 5 μg/animal, day 7 to day 14, N=5; for Percent eosinophil in spleen tissue (Mean): spleen on day 15
Experimental: For this purpose, normal saline (NS) was used as a vehicle control and Apolipoprotein A-IV (ApoA-IV) was used as a positive control, respectively. The study involved induction of asthmatic condition in mice using HDM extract and simultaneous evaluation of the effects of OmeGo Salmon oil (CARDIO softgels; 20 or 60 μg/animal) and ApoA-IV (5 μg/animal; as a positive control) on cosinophil modulation in mice.
On day 1, all 20 mice were anesthetized and sensitized intranasally with 1 μg HDM protein in 40 μL PBS. From day 7 to day 11, all 20 mice were challenged by daily intranasal application of 10 μg HDM protein in 40 μL PBS. Mice were randomly divided into four groups with five mice in each group for differential treatment from day 7 to day 14. From day 7 to day 14, each animal in the first group (G1) received 100 μL NS; each animal in the second group (G2) received 20 μg CARDIO in 100 μL NS; each animal in the third group (G3) received 60 μg CARDIO in 100 μL NS; and each animal in the fourth group (G4) received 5 μg ApoA-IV in 100 μL NS.
The Broncho-Alveolar Lavage (BAL) fluid and spleen were collected from all 20 mice on day 15, and cellularity of the collected samples were analyzed by flow cytometry.

B1: Apolipoprotein A-IV (protein, UniProt P06727 21-396, looked up)
Apolipoprotein A-IV: EVSADQVATVMWDYFSQLSNNAKEAVEHLQKSELTQQLNALFQDKLGEVNTYAGDLQKKLVPFATELHERLAKDSEKLKEEIGKELEELRARLLPHANEVSQKIGDNLRELQQRLEPYADQLRTQVSTQAEQLRRQLTPYAQRMERVLRENADSLQASLRPHADELKAKIDQNVEELKGRLTPYADEFKVKIDQTVEELRRSLAPYAQDTQEKLNHQLEGLTFQMKKNAEELKARISASAEELRQRLAPLAEDVRGNLRGNTEGLQKSLAELGGHLDQQVEEFRRRVEPYGENFNKALVQQMEQLRQKLGPHAGDVEGHLSFLEKDLRDKVNSFFSTFKEKESQDKTLSLPELEQQQEQQQEQQQEQVQMLAPLES
notes: positive control protein
In the case of B1, the “Shape change (100% as baseline) of PMNL” value ([1]; CCL11 0.05 nM) is reported as 100%, the “Shape change (100% as baseline) of PMNL” value ([1]; CCL11 0.10 nM) is reported as 103% and the “Shape change (100% as baseline) of PMNL” value ([1]; CCL11 0.25 nM) is reported as 105%. For the same molecule, the “Shape change (100% as baseline) of PMNL” value ([1]; CCL11 0.50 nM) was 106%, the “Shape change (100% as baseline) of PMNL” value ([1]; CCL11 0.75 nM) was 108% and the “Shape change (100% as baseline) of PMNL” value ([1]; CCL11 1.00 nM) was 109%. For the same molecule, the “Shape change (100% as baseline) of PMNL” value ([1]; CCL11 2.50 nM) was 109%, the “Shape change (100% as baseline) of PMNL” value ([1]; CCL11 5.00 nM) was 107% and the “percentage of apoptotic cells (annexin Vpos)” value [2] was 60±3.8%. The “percentage of live cells (annexin Vneg)” value [2] was 31.5±2.3%, the “CB11b change (100% as baseline) on PMNL surface” value (shortened to “CB11b change (100% as baseline)”) ([3]; CCL11 0.01 nM) was 95% and the “CB11b change (100% as baseline)” value ([3]; CCL11 0.50 nM) was 103%. For the same molecule, the “CB11b change (100% as baseline)” value ([3]; CCL11 1.00 nM) was 122%, the “CB11b change (100% as baseline)” value ([3]; CCL11 2.50 nM) was 125% and the “CB11b change (100% as baseline)” value ([3]; CCL11 5.00 nM) was 125%. For the same molecule, the “CB11b change (100% as baseline)” value ([3]; CCL11 10.00 nM) was 114%, the “Cell count in BAL fluid: Eosinophil count (Mean)” value ([4]; BAL on day 15) was 28220 and the “Percent eosinophil in spleen tissue (Mean)” value [4] was 2.34%. For the same molecule, the “Percent eosinophil in spleen tissue (Mean)” value ([4]; listed as ApoA-IV) was “significantly decreased”.

Reference: US20240269196A1, “RESPIRATORY TREATMENTS USING SALMONID OIL COMPOSITIONS” (Hofseth Biocare ASA, priority 2020, published 2024)
